We go through six molecules from patent US6548282B2, “Phytase and gene encoding said phytase” (priority 1996, dated 2003).

Data set [1] has as its system wheat bran-derived phytase. The note with it: Agr. Biol. Chem., 26, 794-803 (1962); read-out: Michaelis constant (Km); cited from earlier work.
Data set [2] relates to rice bran-derived phytase. The note with it: Agr. Biol. Chem., 53, 1475-1483; read-out: Michaelis constant (Km); cited from earlier work.
The subject of data set [3] is maize (Zea mays)-derived phytase. The conditions noted are these: read-out: Michaelis constant (Km); cited from earlier work.
The test system of data set [4] is Aspergillus ficcum-derived phytase. The conditions noted are these: WO 91/05053; read-out: Michaelis constant (Km); cited from earlier work.
The test system of data set [5] is Aspergillus oryzae-derived phytase. The note with it: read-out: Michaelis constant (Km); cited from earlier work.
Data set [6] relates to Bacillus subtilis-derived phytase. The note with it: read-out: Michaelis constant (Km); cited from earlier work.
Data set [7] relates to Bacillus natto-derived phytase. The conditions noted are these: read-out: Michaelis constant (Km); cited from earlier work.
Data set [8] has as its system Escherichia coli-derived phytase. The conditions noted are these: read-out: Michaelis constant (Km); cited from earlier work.
Substrate in data set [9]: O=P(O)(O)O[C@H]1[C@H](OP(=O)(O)O)[C@@H](OP(=O)(O)O)[C@H](OP(=O)(O)O)[C@@H](OP(=O)(O)O)[C@H]1OP(=O)(O)O
Nature of the data set: Km of novel phytase from Aspergillus niger SK57 (standard assay, Lineweaver-Burk plot). In kind it is biochemical. The conditions noted are these: other: sodium phytate 0.00625 to 1.25 mM, pH 5.5, 37° C. On the procedure:
(§1) 0.5 ml of 0.2 M acetate buffer, pH 5.5 (sodium acetate) containing 2.5 mM sodium phytate (Sigma) is maintained at 37° C. for 5 minutes, and 0.5 ml of an enzyme solution is added to initiate the reaction. After maintained at 37° C. for 10 minutes, 2 ml of a stop solution of enzyme reaction (i.e., mixture of 1:1:2 10 mM ammonium molybdate, 5 N sulfuric acid and acetone) is added to stop the reaction, and 0.1 ml of 1 M citric acid is further added and mixed. The absorbance of this solution is determined at 380 nm on a spectrophotometer (Hitachi U-2000). One unit of phytase activity is defined as the amount of enzyme allowing to release 1 μmol inorganic phosphorus for 1 minute at pH 5.5 at 37° C.
(§2) The Km value of the novel phytase can be determined by the Lineweaver-Burk plot in which the activity of the novel phytase, as determined by the standard assay, is plotted at varying concentrations of the substrate.
(§3) (1) Km value: The activity was determined according to the standard assay where the substrate concentration was varied in the range of 0.00625 to 1.25 mM. The results were graphted out in Lineweave-Burk plot so that Km values were determined.

The nature of data set [10]: Specific activity of purified phytase, standard assay. The class given is biochemical. The note with it: after purification; pH 5.5, 37° C. As for the experimental part: as §1
Ten g of the crude phytase powder obtained in Example 6-2 was dissolved in 50 ml of acetate buffer A [50 mM acetic acid/50 mM sodium acetate (pH 5.5)] and then desalted through an Ultrafilter (cut off molecular weight 10,000; Sartrius). The resulting enzyme solution was applied to a DIAION HPA-75 (Mitsubishi Corporation) column (5.6 cm×30 cm) previously equilibrated with acetate buffer A. After washed with acetate buffer A, novel phytase was eluted with acetate buffer B [50 mM acetic acid/50 mM sodium acetate (pH 4.8)] containing 0.3 M NaCl. […]

Data set [11] can be described thus: Substrate specificity, standard assay. The class given is biochemical. On the procedure: as §1
(7) Substrate specificity: The activity was determined by the standard assay method wherein the concentration of substrates was adjusted at 1 mM and 10 mM.

Substrate in data set [12]: O=P(O)(O)O[C@H]1[C@H](OP(=O)(O)O)[C@@H](OP(=O)(O)O)[C@H](OP(=O)(O)O)[C@@H](OP(=O)(O)O)[C@H]1OP(=O)(O)O
Nature of the data set: Km of novel phytase from transformant Aspergillus nidulans M-PA1 (standard assay, Lineweaver-Burk plot). The class given is biochemical. The conditions noted are these: other: sodium phytate 0.00625 to 1.25 mM, pH 5.5, 37° C. As for the experimental part: as §1, §2, §3

Substrate in data set [13]: O=P(O)(O)O[C@H]1[C@H](OP(=O)(O)O)[C@@H](OP(=O)(O)O)[C@H](OP(=O)(O)O)[C@@H](OP(=O)(O)O)[C@H]1OP(=O)(O)O
Description: Km of novel phytase from transformant Aspergillus niger MH-PA1 (standard assay, Lineweaver-Burk plot). The class given is biochemical. The note with it: other: sodium phytate 0.00625 to 1.25 mM, pH 5.5, 37° C. On the procedure: as §1, §2, §3

Substrate in data set [14]: O=P(O)(O)O[C@H]1[C@H](OP(=O)(O)O)[C@@H](OP(=O)(O)O)[C@H](OP(=O)(O)O)[C@@H](OP(=O)(O)O)[C@H]1OP(=O)(O)O
Nature of the data set: Km of novel phytase from transformant Aspergillus oryzae MO-PG3 (standard assay, Lineweaver-Burk plot). In kind it is biochemical. The note with it: other: sodium phytate 0.00625 to 1.25 mM, pH 5.5, 37° C. On the procedure: as §1, §2, §3

Usually Km stands for the concentration of substrate that gives half-maximal velocity. As for `O=P(O)(O)O[C@H]1[C@H](OP(=O)(O)O)[C@@H](OP(=O)(O)O)[C@H](OP(=O)(O)O)[C@@H](OP(=O)(O)O)[C@H]1OP(=O)(O)O` [phytic acid], the Km in data set [1] was 570 µM; in [2], 170 µM; in data set [3] it was 117 µM; in data set [4], 250 µM; in data set [5] it was 330 µM; in data set [6], 150 µM. The values for the Michaelis-Menten constant (Km) in [7] and in [8] were 500 µM and 130 µM, respectively.

B1: novel phytase derived from Aspergillus niger SK57, SEQ ID NO:1 (Aspergillus niger CBS 513.88) (protein)
chain: SRNQSTCDTVDQGYQCFSETSHLWGQYAPFFSLANKSAISPDVPAGCHVTFAQVLSRHGARYPTDSKGKKYSALIEEIQQNATTFEGKYAFLKTYNYSLGADDLTPFGEQELVNSGVKFYQRYESLTRNIVPFIRSSGSSRVIASGNKFIEGFQSTKLKDPRAQPGQSSPKIDVVISEASTSNNTLDPGTCTVFEDSELADDIEANFTATFVPSIRQRLENDLSGVSLTDTEVTYLMDMCSFDTISTSTVDTKLSPFCDLFTHEEWINYDYLQSLNKYYGHGAGNPLGPTQGVGYANELIARLTHSPVHDDTSSNHTLDSNPATFPLNSTLYADFSHDNGIISILFALGLYNGTKPLSSTTAENITQTDGFSSAWTVPFASRMYVEMMQCQSEQEPLVRVLVNDRVVPLHGCPVDALGRCTRDSFVKGLSFARSGGDWGECFA
Take B1: in [9], the Km is 13 µM.

B2: novel phytase from Aspergillus niger SK57: Phytase purified from wheat bran culture of Aspergillus niger SK57 (FERM BP-5473); amino acid sequence SEQ ID NO:1 (protein)
chain: SRNQSTCDTVDQGYQCFSETSHLWGQYAPFFSLANKSAISPDVPAGCHVTFAQVLSRHGARYPTDSKGKKYSALIEEIQQNATTFEGKYAFLKTYNYSLGADDLTPFGEQELVNSGVKFYQRYESLTRNIVPFIRSSGSSRVIASGNKFIEGFQSTKLKDPRAQPGQSSPKIDVVISEASTSNNTLDPGTCTVFEDSELADDIEANFTATFVPSIRQRLENDLSGVSLTDTEVTYLMDMCSFDTISTSTVDTKLSPFCDLFTHEEWINYDYLQSLNKYYGHGAGNPLGPTQGVGYANELIARLTHSPVHDDTSSNHTLDSNPATFPLNSTLYADFSHDNGIISILFALGLYNGTKPLSSTTAENITQTDGFSSAWTVPFASRMYVEMMQCQSEQEPLVRVLVNDRVVPLHGCPVDALGRCTRDSFVKGLSFARSGGDWGECFA
Consider B2, for which the specific activity in data set [10] turned out to be 158 U/mg. In addition, the “Relative activity (100%)” value was 1.6% in data set [11] (substrate ATP 1 mM); 1.2% in data set [11] (substrate ATP 10 mM); 0.45% in [11] (substrate D-glucose-6-phosphate 1 mM); 4.2% in [11] (substrate D-glucose-6-phosphate 10 mM); 0.71% in [11] (substrate D-myo-inositol 1,4,5-tris-phosphate 1 mM); 5.8% in data set [11] (substrate D-myo-inositol 1,4,5-tris-phosphate 10 mM). The “Relative activity (100%)” value in [11] (substrate fructose-6-phosphate 1 mM) turned out to be 0.15%; in [11] (substrate fructose-6-phosphate 10 mM), 0.93%; in data set [11] (substrate glycerophosphoric acid 1 mM), 0.11%; in data set [11] (substrate glycerophosphoric acid 10 mM), 0.96%; in data set [11] (substrate p-nitrophenyl phosphate 1 mM), 1.9%; in data set [11] (substrate p-nitrophenyl phosphate 10 mM) it was 10%. The “Relative activity (100%)” value in data set [11] (substrate phytic acid 1 mM) is listed as 100%. Moreover, the “substrate specificity (in words)” value in [11] (substrates of Table 1 at 1 mM and 10 mM) is “acted with low specificity on the substrates shown in Table 1, but it had less activity on substrates other than phytic acid”.

B3: novel phytase (SK57 gene, pANPHY1) derived from Aspergillus nidulans M-PA1 (Aspergillus niger CBS 513.88) (protein)
chain: SRNQSTCDTVDQGYQCFSETSHLWGQYAPFFSLANKSAISPDVPAGCHVTFAQVLSRHGARYPTDSKGKKYSALIEEIQQNATTFEGKYAFLKTYNYSLGADDLTPFGEQELVNSGVKFYQRYESLTRNIVPFIRSSGSSRVIASGNKFIEGFQSTKLKDPRAQPGQSSPKIDVVISEASTSNNTLDPGTCTVFEDSELADDIEANFTATFVPSIRQRLENDLSGVSLTDTEVTYLMDMCSFDTISTSTVDTKLSPFCDLFTHEEWINYDYLQSLNKYYGHGAGNPLGPTQGVGYANELIARLTHSPVHDDTSSNHTLDSNPATFPLNSTLYADFSHDNGIISILFALGLYNGTKPLSSTTAENITQTDGFSSAWTVPFASRMYVEMMQCQSEQEPLVRVLVNDRVVPLHGCPVDALGRCTRDSFVKGLSFARSGGDWGECFA
notes: secreted, mature, purified, glycosylated
In the case of B3, the Km in data set [12] came out at 20 µM.

B4: novel phytase (SK57 gene, pANPHY1) derived from Aspergillus niger MH-PA1 (Aspergillus niger CBS 513.88) (protein)
chain: SRNQSTCDTVDQGYQCFSETSHLWGQYAPFFSLANKSAISPDVPAGCHVTFAQVLSRHGARYPTDSKGKKYSALIEEIQQNATTFEGKYAFLKTYNYSLGADDLTPFGEQELVNSGVKFYQRYESLTRNIVPFIRSSGSSRVIASGNKFIEGFQSTKLKDPRAQPGQSSPKIDVVISEASTSNNTLDPGTCTVFEDSELADDIEANFTATFVPSIRQRLENDLSGVSLTDTEVTYLMDMCSFDTISTSTVDTKLSPFCDLFTHEEWINYDYLQSLNKYYGHGAGNPLGPTQGVGYANELIARLTHSPVHDDTSSNHTLDSNPATFPLNSTLYADFSHDNGIISILFALGLYNGTKPLSSTTAENITQTDGFSSAWTVPFASRMYVEMMQCQSEQEPLVRVLVNDRVVPLHGCPVDALGRCTRDSFVKGLSFARSGGDWGECFA
notes: secreted, mature, purified
As for B4, the Michaelis-Menten constant (Km) in [13] worked out at 30 µM.

B5: novel phytase (SK57 gene, pANPHY1) derived from Aspergillus oryzae MO-PG3 (Aspergillus niger CBS 513.88) (protein)
chain: SRNQSTCDTVDQGYQCFSETSHLWGQYAPFFSLANKSAISPDVPAGCHVTFAQVLSRHGARYPTDSKGKKYSALIEEIQQNATTFEGKYAFLKTYNYSLGADDLTPFGEQELVNSGVKFYQRYESLTRNIVPFIRSSGSSRVIASGNKFIEGFQSTKLKDPRAQPGQSSPKIDVVISEASTSNNTLDPGTCTVFEDSELADDIEANFTATFVPSIRQRLENDLSGVSLTDTEVTYLMDMCSFDTISTSTVDTKLSPFCDLFTHEEWINYDYLQSLNKYYGHGAGNPLGPTQGVGYANELIARLTHSPVHDDTSSNHTLDSNPATFPLNSTLYADFSHDNGIISILFALGLYNGTKPLSSTTAENITQTDGFSSAWTVPFASRMYVEMMQCQSEQEPLVRVLVNDRVVPLHGCPVDALGRCTRDSFVKGLSFARSGGDWGECFA
notes: as for B3
For the molecule B5, the Km in data set [14] is 28 µM.
